Data on 1 molecule can be found in article PMC8615271.

This test addresses PDI and ERp72 (human). The test is described as follows: ITC; 280 µM P5 Cys55/58/190/193Ala mutant in the syringe (50 mM HEPES pH 7.2, 150 mM NaCl) titrated into 40 µM PDI or ERp72 in the cell (50 mM HEPES pH 7.2); 30 °C; one set of sites model. On the technique in general: ITC needs no label: the signal is the heat of the interaction.

B1: Catalytically-inactive P5 (Cys55/58/190/193Ala) mutant (enzyme)
chain: LYSSSDDVIELTPSNFNREVIQSDSLWLVEFYAPWAGHAQRLTPEWKKAATALKDVVKVGAVDADKHHSLGGQYGVQGFPTIKIFGSNKNRPEDYQGGRTGEAIVDAALSALRQLVKDRLGGRSGGYSSGKQGRSDSSSKKDVIELTDDSFDKNVLDSEDVWMVEFYAPWAGHAKNLEPEWAAAASEVKEQTKGKVKLAAVDATVNQVLASRYGIRGFPTIKIFQKGESPVDYDGGRTRSDIVSRALDLFSDNAPPPELLEIINEDIAKRTCEEHQLCVVAVLPHILDTGAAGRNSYLEVLLKLADKYKKKMWGWLWTEAGAQSELETALGIGGFGYPAMAAINARKMKFALLKGSFSEQGINEFLRELSFGRGSTAPVGGGAFPTIVEREPWDGRDGELPVEDDIDLSDVELDDLGKDEL
One may read the Kd as the free concentration of one partner at which half of the binding sites on the other are occupied at equilibrium, for simple one-to-one binding. The low end stands for tighter binding, the high end for weaker binding. The molecule B1 came in with a dissociation constant (Kd) of 2.4 to 4.1 µM.
